Assay results published in IntAct's records for PubMed 11106648.

B1: Tyrosine-protein phosphatase non-receptor type 1 (Homo sapiens), P18031 (parent)
chain: MEMEKEFEQIDKSGSWAAIYQDIRHEASDFPCRVAKLPKNKNRNRYRDVSPFDHSRIKLHQEDNDYINASLIKMEEAQRSYILTQGPLPNTCGHFWEMVWEQKSRGVVMLNRVMEKGSLKCAQYWPQKEEKEMIFEDTNLKLTLISEDIKSYYTVRQLELENLTTQETREILHFHYTTWPDFGVPESPASFLNFLFKVRESGSLSPEHGPVVVHCSAGIGRSGTFCLADTCLLLMDKRKDPSSVDIKKVLLEMRKFRMGLIQTADQLRFSYLAVIEGAKFIMGDSSVQDQWKELSHEDLEPPPEHIPPPPRPPKRILEPHNGKCREFFPNHQWVKEETQEDKDCPIKEEKGSPLNAAPYGIESMSQDTEVRSRVVGGSLRGAQAASPAKGEPSLPEKDEDHALSYWKPFLVNMCVATVLTAGAYLCYRFLFNSNT

Variants of: B1
Conditions: with cadh2_chick CDH2, P10288
cadh2_chick CDH2, P10288, sequence (P10288 whole entry): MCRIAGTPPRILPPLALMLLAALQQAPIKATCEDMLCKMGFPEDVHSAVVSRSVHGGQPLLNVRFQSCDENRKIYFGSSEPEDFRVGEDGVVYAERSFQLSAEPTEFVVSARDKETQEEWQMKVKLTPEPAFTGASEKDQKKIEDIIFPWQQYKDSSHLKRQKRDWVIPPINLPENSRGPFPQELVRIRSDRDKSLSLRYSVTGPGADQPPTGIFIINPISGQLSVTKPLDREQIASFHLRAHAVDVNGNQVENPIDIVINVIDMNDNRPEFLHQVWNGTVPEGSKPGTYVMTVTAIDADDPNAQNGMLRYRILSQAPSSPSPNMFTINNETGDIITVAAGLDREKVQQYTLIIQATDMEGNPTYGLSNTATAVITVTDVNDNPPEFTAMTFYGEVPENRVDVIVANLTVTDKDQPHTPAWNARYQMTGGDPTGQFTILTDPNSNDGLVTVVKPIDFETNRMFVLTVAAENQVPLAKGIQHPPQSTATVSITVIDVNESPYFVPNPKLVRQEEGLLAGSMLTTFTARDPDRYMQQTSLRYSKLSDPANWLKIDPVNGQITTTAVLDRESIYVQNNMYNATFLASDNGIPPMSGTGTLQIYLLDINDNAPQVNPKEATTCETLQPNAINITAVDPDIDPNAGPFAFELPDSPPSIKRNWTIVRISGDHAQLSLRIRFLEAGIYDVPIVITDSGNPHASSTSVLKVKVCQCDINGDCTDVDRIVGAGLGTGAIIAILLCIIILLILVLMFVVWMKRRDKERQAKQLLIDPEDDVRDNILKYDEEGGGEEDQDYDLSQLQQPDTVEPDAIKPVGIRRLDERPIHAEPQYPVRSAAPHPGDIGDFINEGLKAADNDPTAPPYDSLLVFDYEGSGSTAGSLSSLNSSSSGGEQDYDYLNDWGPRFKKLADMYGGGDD

Row | Variant | effect of a mutation on the interaction
1 | Y66F | increasing interaction
2 | Y66F;Y152F | decreasing interaction
3 | Y66F;Y152F;Y153F | decreasing interaction
4 | Y66F;Y153F | increasing interaction
5 | Y152F | decreasing interaction
6 | Y153F | increasing interaction
7 | C215S | increasing interaction

Variants of: B1
Conditions: with cadh2_mouse Cdh2, P15116
cadh2_mouse Cdh2, P15116, sequence (P15116 whole entry): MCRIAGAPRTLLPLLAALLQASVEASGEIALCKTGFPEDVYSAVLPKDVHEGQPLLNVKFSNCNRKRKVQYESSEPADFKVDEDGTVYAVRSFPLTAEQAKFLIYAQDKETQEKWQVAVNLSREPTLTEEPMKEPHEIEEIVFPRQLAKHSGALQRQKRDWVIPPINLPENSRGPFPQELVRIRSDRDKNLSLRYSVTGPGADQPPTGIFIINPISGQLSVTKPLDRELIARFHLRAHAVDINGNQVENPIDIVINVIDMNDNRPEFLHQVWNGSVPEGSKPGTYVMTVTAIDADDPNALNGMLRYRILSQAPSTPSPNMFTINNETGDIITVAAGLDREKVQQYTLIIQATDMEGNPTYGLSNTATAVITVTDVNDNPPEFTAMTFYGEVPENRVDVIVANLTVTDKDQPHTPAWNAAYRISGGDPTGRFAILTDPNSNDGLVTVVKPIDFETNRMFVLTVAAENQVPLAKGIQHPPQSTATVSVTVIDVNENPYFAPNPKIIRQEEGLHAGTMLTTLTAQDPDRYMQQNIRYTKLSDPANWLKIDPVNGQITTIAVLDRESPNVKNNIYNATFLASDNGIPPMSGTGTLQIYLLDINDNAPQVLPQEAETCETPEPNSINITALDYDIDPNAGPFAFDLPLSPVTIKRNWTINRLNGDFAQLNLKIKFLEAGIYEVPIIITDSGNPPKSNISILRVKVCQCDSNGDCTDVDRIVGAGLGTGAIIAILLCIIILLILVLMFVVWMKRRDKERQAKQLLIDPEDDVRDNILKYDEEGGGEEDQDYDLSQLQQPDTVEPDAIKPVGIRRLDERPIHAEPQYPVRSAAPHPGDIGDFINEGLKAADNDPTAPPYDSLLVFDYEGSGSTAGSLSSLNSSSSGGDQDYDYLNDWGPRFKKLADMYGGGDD

Row | Variant | effect of a mutation on the interaction
8 | Y152F | disrupting interaction

Variants of: B1
Conditions: with cadh2_mouse Cdh2, P15116
Remark: another data set of the same source

Row | Variant | effect of a mutation on the interaction
9 | C215S | disrupting interaction strength
